The DeepSol protein solubility set

Test: soluble on expression in E. coli; label from the status in PepcDB or PDB records

Row | Sequence | soluble on expression in E. coli
1 | MGSDKIHHHHHHMMDYFSMTSHQDTKPSAQTSQWPVPTDSVRYVIPEPIVRQLAHHPLTRELYPLAFGHYRRAAGHHMHREHHRDNLLIYCTDGKAFLNVAGEPYTVTAGDLLLLPAGVSHRYTADPDNPWTIHWVHYTGPLAEDFGQYMGFDDSTRIRHLGRQPRLLVDFNGLLSVRQTGFRARGLIHASNRLRQLLAAVPINADETSQARQAELDSLHSFMREHLEERLTLNQLAELSGLSPAHFATRYREQTGTSPIQHFLHLKVERACELLDTTSQSFADISRQLGYDDAYYFSRLFKKVMGKSPTDYRHTARH | not soluble
2 | EFGEPAPANAESSSVAALKIGKVGNFGDCTGTLVADQWVLTARHCLESVNNEGTQARIGGKVYDADSWALSPVSDAGLLHLTEKVTDATPAKVSRDIPTPGQTGTLYGWSSSSSLARSGQLPMAKMVVKELLGGGPSQGTPSEGAPGGATPGEVAPGGAAPSETVPSESQAESIPAGTESIPADGAMMPMIQSAILDAHSVSGAGMQGGDSGGPFFVDGKLAGLATAGTANGDPDLPSPSAAITTLAGTADWIDGVTSGRDTKSVLTAENTPAPPKTIQTSADH | not soluble
3 | MNANLNMDVIRSALLAGEVDDAYKVIFNARKKLELYKSTTGDSRYDPYYEFISILDDVVRGRRSWKDLKAYIDGNMDALSKFIDPDFLRSFPYYLFFSIDRYNVRFPYFDGKRCDDR | not soluble
4 | MGSDKIHHHHHHMRAIFFNGDLQYTTDYPDPVRQPGEALIRPHLVGICNTDLEITRGYMNFRGVLGHEFVGTVVASDDPSWQGKRVVGEINAACRRCPTCLRGDVSHCPQRTTLGIYRRDGAMADLFTLPEACLHEVPASVSDEAAVFTEPLAAALEIVEQSHIRPTERVAVVGDGKLGAMIVQVLRLTGCELTLIGRHPERWDVYRQQGITCVRSTDLPGTLFDVVVDCTGNPSGLNIARQIIRPRGRLILKSTFAAETQLNLSMVVVDEIQLIGSRCGPFAPALRLLERGLIATTPLISARYPLAEGLQAFAAAPGQLKVLLSV | not soluble
5 | MVSAKDFSGAELYTLEEVQYGKFEARMKMAAASGTVSSMFLYQNGSEIADGRPWVEVDIEVLGKNPGSFQSNIITGKAGAQKTSEKHHAVSPAADQAFHTYGLEWTPNYVRWTVDGQEVRKTEGGQVSNLTGTQGLRFNLWSSESAAWVGQFDESKLPLFQFINWVKVYKYTPGQGEGGSDFTLDWTDNFDTFDGSRWGKGDWTFDGNRVDLTDKNIYSRDGMLILALTRKGQESFNGQVPRD | soluble
6 | MFPSVDPEKCEDKGECVSTCPYEVFELGIRTAEEISELSFIGRIEARAHGNRMARTSHIDMCHVCGDCVIVCSEKAIRLLPR | not soluble
7 | MGSDKIHHHHHHKDSNKWKMTGDVSVQDDIMTLKGTDALAVLKNGKYKNFDLTLDLRTTPGGKGAVWFHTDPTLKKGYRIAINNDRADKVWWKMTGSLVSVRNLTKSFVKEDQWFKMDIRVAGQEIDVNINGEPVVEYIQPTAPYRTDANAYALLSEGTFAIESDGSGEIQIKNITVNVIDESTIDINAQLAEANDEQNDEIIKLHQSDFPVLDYHVHLKGGLTKEVAAKQSRKTGINYTIAPNCGIGFPITNDQQVMDYLNEMRSQPFILGMQAEGREWITTFSPETLKEFDYVFTDALTFKDNKGRRTRLWIPEETWIENEEQYMDMIVDRICSVLEEPVDIYVNPCFLPSPMDKRFDEFWTEARMNRFVEALAKSGKALEINELYNIPNKAIIMKAKAAGVKFTFGSNNVTPNVSDLSYSIRMMKECGLTAEDMYKPKVKI | not soluble
8 | MGALLKGRIYTMSVKTLKRTITAVAILAASVMSSSAWSNDLKEIRERGVLRHIGVPYANFVSYIEQGEMHTLTGLDVDIVKGFASSLGVRYEYVPAQWSDMVGKLTGQDVQYRHNRAVVGGSVPIEGDLIANGVTILDWREEVLDFSQDYFPSAVWLVSRTDSSLSPIKPSGSIDEDVKTVKELIDGREVLALEHSCLDPNLYDLYDTGAKVILPDGKRLLNEMVPAIMKNDAESTLLDVADTLIALEKWPG | not soluble
9 | MSLADTYRPEISVAGFIPLPDCGRQVYNFNPGWRFFKGDIRGAEAVNFDDRSWEVVSTPHTVELMPAEGSGCRNYQGPAWYRKHFVVPTATKGQRVLLHFEAAMGKQVLYLNGKRVQEHLGGYLPFTLDLTANGVQAGDSCLLAVYTDNSNDKSYPPGKPQYTLDFAYHGGIYRDVWMIAKSPVAITDAIDSRTVGGGGVFVHFDKISEKSAQVYVETEIQNDNTRSESVTIETTLTDAEGNVIKRTSGKLSLNSGEKKSIRQQMEVRNPKLWSPDAPYLYRVQSRIKKGNRSIDGGTTRIGIRLAEFRGKEGFWLNGKPFGQLVGANRHQDFAYVGNALPNSQQWRDAKRLRDAGCTIIRVAHYPQDPSFMDACDELGLFVIVATPGWQYWNKDPKFGELVHQNTREMIRRDRNHPSVLMWEPILNETRYPLDFALKALEITKEEYPYPGRPIAAADVHSAGVKEHYDVVYGWPGDDEKEDKPEQCIFTREFGENVDDWYAHNNNNRASRSWGERPLLIQALSLAKSYDEMYRTTGQFIGGTQWHPFDHQRGYHPDPYWGGIYDAFRQKKYAYEMFRSQSPASLQHPLAECGPMIFLAHEMSQFSDKDVVVFSNCDSIRLSIYDGTKTWTKPVVHAKGHMPNAPVIFENVWDFWEARGYSYTQKNWQKVNMVAEGIIDGKVVCTQKKMPSRRSTKLRLYADTQKVNLVADGSDFIVVVAEVTDDSGNVRRLAKENIVFTVEGEGEIIGDARIGANPRAVEFGSAPLLIRSTRKAGKIKVKAHVQFEGTQAPTAAEMEFESVPAELPFCYDEKEGHHHHHH | soluble
10 | MIKESTLHISFMAVRQTMRRVISRIVPPREVEDIVQETYVRICQVENKEAIKQPRSFLLKTAKNLAIDHLKRADIRLVDTVDNMAEFEHLVSADDAIYQQVATDKEFAQFCEAIRQLPIQCRKAFVLKKVYGYSQKEIAKKLAISESTVEKHIGLGVKRCTYFMMQLTKEERTETMKNSKKTHQVRRDL | not soluble
11 | MSLRLALFDLDNTLLGGDSDHAWGDYLCERGFLDAVAYKTRNDEFYQDYLAGKLDNAAYLNFCLEILGRTDMVVLEEWHRDFMRDCIEPILLPKAQALLDKHRAAGDKLVIITATNRFVTAPIAERLGVETLIATECEMQDGRYTGRSTDVPCFREGKVTRLNRWLEETGHSLEDSYFYSDSMNDLPLLEQVTTAVAVDPDPNLRAEAEKRGWQVISLRDEGHHHHHH | soluble
12 | MMLSSNSFSLNLSNEDYIWPLEEDQEETTDSSGPMMLSPPLPEGACFNFEDRNTVYVHSRRPEDTPKSFELYSIPEDLALDSPFPSCEQTTFFTTKPDKSFLLDIKNSSPLNIGRMQNSRS | soluble
13 | MAQKTFTVTADSGIHARPATTLVQAASKFDSDINLEFNGKTVNLKSIMGVMSLGIQKGATITISAEGSDEADALAALEDTMSKEGLGE | soluble
14 | MGSDKIHHHHHHMKKRLGSQTARIDSKPRIVSAVSMVGPKEGRGPLKDYFDIILSDDMNGEESFEKAESNMLYTVITEVIKKSNLTENDIDYLFAGDLLNQITSSSFAARDAKIPFYGLYGACSTMTESLSIAAMIMDGGFADYTIAATSSHFSAAERQFRYPLEYGSQRKPDAQWTVTGAGAMLLARQGDFPYITFVTAGKVKDYGITSPDSMGEAMAPAAVDTIKQHFKDTGRTPQDYDVIATGDLGRVGKKITEDLLKKEYGYDMSNIYMDCGEKIFNCDEQDTNSGGSGCGCSAVVDCGYIYKNMLSGKIKKALLISTGALMSTTSNLQGESIPGIAHAVSIEFGGMKNE | not soluble
15 | MSLRVKTMVFTPFISMVGVTGSMGPFFCEFTLNGDLLPINYPATYTHELAHLLGISSEAEANFYAYQVCTRSQIKGIRFSGYFSILNHVLGNARRLLSEKEYADIINRIRPEIIELAKKNQEYWMAKYSPLIGDVQNWIYDLYLKGNKIESGRKNYSEVIGLLISYQVWKAKTASDEGHHHHHH | not soluble
16 | MHHHHHHSSGVDLGTENLYFQSNAMKHIQINPSILSADLARLGDDVKAVLAAGADNIHFDVMDNHYVPNLTFGPMVLKALRDYGITAGMDVHLMVKPVDALIESFAKAGATSIVFHPEASEHIDRSLQLIKSFGIQAGLALNPATGIDCLKYVESNIDRVLIMSVNPGFGGQKFIPAMLDKAKEISKWISSTDRDILLEIDGGVNPYNIAEIAVCGVNAFVAGSAIFNSDSYKQTIDKMRDELNKV | soluble
17 | MTKYIFVTGGVVSSLGKGITAASLGRLLKNRGLNVTIQKFDPYINVDPGTMSPYQHGEVFVTDDGAETDLDLGHYERFIDINLNKYSNVTTGKIYSSVLQKERRGEYLGGTVQVIPHITNEIKERVYRSGRETNADVVITEIGGTVGDIESLPFLEAIRQIKSDIGRDNVMYIHCTLIPYLKAAGEMKTKPTQHSVKELRSLGIQPNIIVVRTEMPVSQDMKDKLALFCDIDTKAVIEARDADTLYAVPLSLQEQNMDQIVCDHLKLDNPAADMTEWTALVEKVRNLSKKTKIALVGKYVELQDAYISVVEALRHAGYSFDTDVEVKWVNAEHVTAENVQELVGDTDGILVPGGFGDRGVEGKIVAIQYARENKVPFLGICLGMQLASIEFARNVLGLEGANSSEINPDTPYAIIDLLPEQKDVEDLGGTLRLGLYPCKLSEETNAYNAYNEPVVYERHRHRYEFNNQFRPDMEKAGFVFSGTSPDGRLVEIIELKDHPWFVAAQFHPELVSRPNRPQPLFHDFVKASLTNKESK | not soluble
18 | MGREFLDLFEQWAESYDRSVEGYDEQYRDVFAGYDRILSTVADKAGQVVLEFGVGTGNLTKKLLERGKRVYGIEPSAPMRKKAAEKLNGRAVILEGDFLQFPTPPEPIDTIASTYAFHHLTDAEKDEALAKYSQLLHPGGKIVFADTAFRDKEAFRQAIEEARARGFHDLADDLEREYYTTLDVLASLFSKHGFSASFAQQNAFVWVMEAVKQTT | not soluble
19 | MAPLLSLCMIVKNEAHQLRRCLQSVQPWVDEIIIVDTGSTDGTIAIACEFTPHVHAVAWQGDFAAARNAALAQATGEWVFYIDADEELVVTDAHWQDQLTAPGAHAINQWSLLRREQSSDRNWSEFWNVRFGRRFPDLHFAGALHEQLCYREREAVVGELQGVYLIHHNQQSQEQFLAKIRDRNIPILETMVQQGDRRLQNLVCLGDHYAACGDSDRSQAWYEQALEEIASAVEQGILPRETTWLRHLLFWVSYRAFEAKDYETAQYYLSYGLRFFDRYPPLLYVAGLFVFELGLPRGALPYFHRCLDLFEAGSYDRTEPFDRQWMTTQPAYSLGYTYMTLQERDRAIAYFQKTLKFNPDYPPAQMYLEQLLRASANQGLEHHHHHH | not soluble
20 | MGSDKIHHHHHHMGKKTTIAIAHSDADLGKPAEYTRDQLDLVKAMIRQIADQTMGGMGNIVHKGDKVLIKINTVIPVPANAGFTTDPRMLEALIELVQEQNPGRIQIGERCAMGADTMEAMRVCGIVDVAERTGVELCPFEHAEFDMYKIDRPISFNEFPVPRPVRDADCYIGLPKMKVHVHTTFTGAMKLQFGNLPNYDWMVRCHRDDIYQKIVNLTRAANPKWFVMDSLYACQGNGPFSPYSEDLIKDFNTICGGPDPVAVDTVCEALMDWDYPGTNVPSTVLGAAEGLGTNRMNEIELAGAPLDKVKRRFKRQNTILQGQYPNVNLVMGSTCEAGCKAIVRIQLDQLQADGTLERLEKPITIFTGLQFEEHINKVEGDVLIVGDCAKGMLEKFPDARYWGDCEEYPNCTPIWANRPDVGIANYVRQLTAVREGNAR | not soluble
21 | MGSDKIHHHHHHMGGLKMKVIILGSGSYSGTPKPLCTCENCTRARINPAFRRTRFSVYIEGGILIDPGPDLHYHLEKLNKEVETILITHAHFDHIFGLPDAQVFKKLTIASNPLGIKVARSLAMLAFNSEAPLGNDWDYVELKFWNEYKVNGVKVIHFPVVHSIEMAGGFLIERKNKTVAITGDTGPEIIRDSEVIDLIKGSDLLISEMTHKESIPKTHLGVNDAIELAKIVKAEQTVFAHISHSNYPQEILEKKVREAKISGIVARDFTIIEI | not soluble
